Data taken from publication doi:10.1101/2024.08.21.608941.

Assays:
[1] = molecular target: M. tuberculosis Eσ^B holoenzyme (M. tuberculosis) (UniProt P9WGZ1); experiment: cryo-EM particle classification
[2] = molecular target: M. tuberculosis Eσ^B holoenzyme (M. tuberculosis) (UniProt P9WGZ1); experiment: negative-stain electron microscopy
[3] = molecular target: RNAP core deltaFT;sigB Cys151/292 (DY547P1/DY647P1 labelled);RbpA (Mycobacterium …, UniProt P9WGZ1;P9WGY9;P9WGY7;P9WGY5;P9WGI5;P9WHJ5 …, internal_change|T151C;G292C|); experiment: smFRET
[4] = molecular target: RNAP core deltaFT;sigB Cys151/292 (DY547P1/DY647P1 labelled) (Mycobacterium …, UniProt P9WGZ1;P9WGY9;P9WGY7;P9WGY5;P9WGI5 1-347;1-810+826-1178;1-1316;1-110;1-323, internal_change|T151C;G292C); experiment: smFRET

Molecule: M. tuberculosis Eσ^B holoenzyme (from UniProt P9WGZ1;P9WGY9;P9WGY7;P9WGY5;P9WGI5) (complex)
- stoichiometry N [1]: 2
- stoichiometry N [2]: 8

Molecule: TGCGTATAATGTGTGGA (ssDNA) [-10 ssDNA (unlabelled)]
- binding result [3]: binds
- binding result [4]: binds
